Source: PMC3288383 (Journal of Molecular Biology, 2012)
Where “and” joins values, the source holds several entries; their conditions need not be identical. Equal entries are not always repeated.

How the values were obtained:
Jac1_(L106) = molecular target: T1, Jac1_(L106) (S. cerevisiae, UniProt P53193 11-184, L106 to Ala); experiment: pull-down
T1 sequence (looked up): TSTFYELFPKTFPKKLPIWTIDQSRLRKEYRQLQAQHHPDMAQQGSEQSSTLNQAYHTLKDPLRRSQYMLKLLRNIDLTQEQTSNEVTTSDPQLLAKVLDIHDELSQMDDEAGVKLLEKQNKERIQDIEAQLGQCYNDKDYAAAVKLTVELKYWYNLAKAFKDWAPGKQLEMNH

[1] = molecular target: T2, Jac1 (wild type), His-tagged (S. cerevisiae, UniProt P53193 11-184); experiment: pull-down
T2 sequence (looked up): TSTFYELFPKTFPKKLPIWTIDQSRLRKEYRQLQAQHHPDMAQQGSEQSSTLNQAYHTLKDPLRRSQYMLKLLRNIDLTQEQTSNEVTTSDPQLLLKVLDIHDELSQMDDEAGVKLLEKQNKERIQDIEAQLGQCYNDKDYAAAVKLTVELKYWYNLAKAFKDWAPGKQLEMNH

Isu1His = molecular target: T3, Isu1His (S. cerevisiae, UniProt Q03020 28-165); experiment: cell-based or functional assay
T3 sequence (looked up): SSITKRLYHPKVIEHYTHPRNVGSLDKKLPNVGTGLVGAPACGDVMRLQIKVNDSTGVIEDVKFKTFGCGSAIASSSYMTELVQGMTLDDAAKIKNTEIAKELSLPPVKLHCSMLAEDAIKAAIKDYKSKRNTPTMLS

B1: Isu1-GST (natural protein, S. cerevisiae, UniProt Q03020 28-165, looked up)
chain: SSITKRLYHPKVIEHYTHPRNVGSLDKKLPNVGTGLVGAPACGDVMRLQIKVNDSTGVIEDVKFKTFGCGSAIASSSYMTELVQGMTLDDAAKIKNTEIAKELSLPPVKLHCSMLAEDAIKAAIKDYKSKRNTPTMLS
Jac1_(L106)
  Kd: 250 ± 70 nM
[1]
  Kd: 690 nM and 800 nM

B2: Jac1LLL (natural protein, S. cerevisiae, UniProt P53193 11-184, looked up)
chain: TSTFYELFPKTFPKKLPIWTIDQSRLRKEYRQLQAQHHPDMAQQGSEQSSTLNQAYHTLKDPLRRSQYMLKLLRNIDLTQEQTSNEVTTSDPQLAAKVADIHDELSQMDDEAGVKLLEKQNKERIQDIEAQLGQCYNDKDYAAAVKLTVELKYWYNLAKAFKDWAPGKQLEMNH
Isu1His
  stimulation of Ssq1 ATPase activity: C0.5 compared to the wt control: ~24 fold

B3: Jac1Y (natural protein, S. cerevisiae, UniProt P53193 11-184, looked up)
chain: TSTFYELFPKTFPKKLPIWTIDQSRLRKEYRQLQAQHHPDMAQQGSEQSSTLNQAYHTLKDPLRRSQYMLKLLRNIDLTQEQTSNEVTTSDPQLLLKVLDIHDELSQMDDEAGVKLLEKQNKERIQDIEAQLGQCYNDKDYAAAVKLTVELKAWYNLAKAFKDWAPGKQLEMNH
Isu1His
  stimulation of Ssq1 ATPase activity: increase of C0.5 against wt: ~15 fold
